From the supplement of paper PMC5998384 come the findings set out here.

Data set [1] concerns HeLa Kyoto. Put plainly: solubility in G1/S (NP-40 vs SDS abundance) (log2 ratio); higher = more soluble. The settings on record: cell cycle stage: G1/S.
The test system of data set [2] is HeLa Kyoto. Briefly: thermal stability score vs G1/S (z-score of summed log2 fold changes over temperatures); higher = more thermally stable than in G1/S.
Data set [3] concerns HeLa Kyoto. Put plainly: solubility change mitosis vs G1/S (difference of NP-40 vs SDS log2 ratios) (log2 ratio difference); higher = more soluble in mitosis.
Data set [4] relates to HeLa Kyoto. Put plainly: melting temperature (median over replicates), in situ; higher = more thermally stable.
[5] abbreviates: cell cycle stage: early G1 (4.5 h after nocodazole release).
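For melting temperature (median over replicates), in situ in this document: HeLa Kyoto cells synchronized by double thymidine or nocodazole block, proteins quantified by TMT10plex mass spectrometry, three independent biological replicates.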
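For solubility change mitosis vs G1/S (difference of NP-40 vs SDS log2 ratios) in this document: synchronized HeLa Kyoto cells (double thymidine block for G1/S, nocodazole release for mitosis), protein amounts in NP-40 versus SDS lysates quantified by mass spectrometry, three biological replicates.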
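For solubility in G1/S (NP-40 vs SDS abundance) in this document: HeLa Kyoto cells arrested at G1/S by double thymidine block, proteins quantified by TMT10plex mass spectrometry in mild NP-40 versus SDS extracts, three biological replicates.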
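For thermal stability score vs G1/S (z-score of summed log2 fold changes over temperatures) in this document: synchronized HeLa Kyoto cells, proteins quantified by TMT10plex mass spectrometry, three biological replicates, mitosis taken 0.5 h after nocodazole release, G1/S directly after double thymidine block.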

“MAVEDSTLQVVVRVRPPTPRELDSQRRPVVQVVDERVLVFNPEEPDGGFPGLKWGGTHDGPKKKGKDLTFVFDRVFGEAATQQDVFQHTTHSVLDSFLQGYNCSVFAYGATGAGKTHTMLGREGDPGIMYLTTVELYRRLEARQQEKHFEVLISYQEVYNEQIHDLLEPKGPLAIREDPDKGVVVQGLSFHQPASAEQLLEILTRGNRNRTQHPTDANATSSRSHAIFQIFVKQQDRVPGLTQAVQVAKMSLIDLAGSERASSTHAKGERLREGANINRSLLALINVLNALADAKGRKTHVPYRDSKLTRLLKDSLGGNCRTVMIAAISPSSLTYEDTYNTLKYADRAKEIRLSLKSNVTSLDCHISQYATICQQLQAEVAALRKKLQVYEGGGQPPPQDLPGSPKSGPPPEHQPCTPELPAGPRALQEESLGMEAQVERAMEGNSSDQEQSPEDEDEGPAEEVPTQMPEQNPTHALPESPRLTLQPKPVVGHFSARELDGDRSKQLALKVLCVAQRQYSLLQAANLLTPDMITEFETLQQLVQEEKIEPGAEALRTSGLARGAPLAQELCSESIPVPSPLCPEPPGYTGPVTRTMARRLSGPLHTLGIPPGPNCTPAQGSRWPMEKKRRRPSALEADSPMAPKRGTKRQRQSFLPCLRRGSLPDTQPSQGPSTPKGERASSPCHSPRVCPATVIKSRVPLGPSAMQNCSTPLALPTRDLNATFDLSEEPPSKPSFHECIGWDKIPQELSRLDQPFIPRAPVPLFTMKGPKPTSSLPGTSACKKKRVASSSVSHGRSRIARLPSSTLKRPAGPLVLPELPLSPLCPSNRRNGKDLIRVGRALSAGNGVTKVS [KIF18B]”: the “solubility in G1/S (log2)” value in the data set with HeLa Kyoto [1] was -0.336. In addition, the thermal stability score is 1.28 in the data set with HeLa Kyoto [2] (setting [5]) and 1.04 in the data set on HeLa Kyoto [2] (cell cycle stage: mitosis). The “solubility change mitosis (log2)” value with HeLa Kyoto [3] came out at 0.37. This sequence also gave a melting temperature in the data set with HeLa Kyoto [4] (cell cycle stage: mitosis) of 49.3 °C.
Regarding “MAVELGVLLVRPRPGTGLGRVMRTLLLVLWLATRGSALYFHIGETEKKCFIEEIPDETMVIGNYRTQLYDKQREEYQPATPGLGMFVEVKDPEDKVILARQYGSEGRFTFTSHTPGEHQICLHSNSTKFSLFAGGMLRVHLDIQVGEHANDYAEIAAKDKLSELQLRVRQLVEQVEQIQKEQNYQRWREERFRQTSESTNQRVLWWSILQTLILVAIGVWQMRHLKSFFEAKKLV [TMED9]”, the “solubility in G1/S (log2)” value in the data set on HeLa Kyoto [1] is 0.375. Besides, the thermal stability score in the data set with HeLa Kyoto [2] (setting [5]) stood at 1.59; with HeLa Kyoto [2] (cell cycle stage: mitosis), 1.3. Further, the “solubility change mitosis (log2)” value in the data set on HeLa Kyoto [3] turned out to be 0.0692. Besides, the melting temperature with HeLa Kyoto [4] (cell cycle stage: G1/S) came to 55.7 °C; with HeLa Kyoto [4] (cell cycle stage: mitosis), 56.7 °C.
“MAVKKIAIFGATGQTGLTTLAQAVQAGYEVTVLVRDSSRLPSEGPRPAHVVVGDVLQAADVDKTVAGQDAVIVLLGTRNDLSPTTVMSEGARNIVAAMKAHGVDKVVACTSAFLLWDPTKVPPRLQAVTDDHIRMHKVLRESGLKYVAVMPPHIGDQPLTGAYTVTLDGRGPSRVISKHDLGHFMLRCLTTDEYDGHSTYPSHQYQ [BLVRB]”: the “solubility in G1/S (log2)” value with HeLa Kyoto [1] was 0.417. Further, the thermal stability score with HeLa Kyoto [2] (setting [5]) came to 4.14; in the data set with HeLa Kyoto [2] (cell cycle stage: mitosis), 2.47. Moreover, the “solubility change mitosis (log2)” value in the data set with HeLa Kyoto [3] was -0.116. Moreover, the values for the melting temperature in the data set on HeLa Kyoto [4] (cell cycle stage: G1/S) and with HeLa Kyoto [4] (cell cycle stage: mitosis) were 50.4 °C and 50.7 °C, respectively.
For the sequence “MAVKVQTTKRGDPHELRNIFLQYASTEVDGERYMTPEDFVQRYLGLYNDPNSNPKIVQLLAGVADQTKDGLISYQEFLAFESVLCAPDSMFIVAFQLFDKSGNGEVTFENVKEIFGQTIIHHHIPFNWDCEFIRLHFGHNRKKHLNYTEFTQFLQELQLEHARQAFALKDKSKSGMISGLDFSDIMVTIRSHMLTPFVEENLVSAAGGSISHQVSFSYFNAFNSLLNNMELVRKIYSTLAGTRKDVEVTKEEFAQSAIRYGQVTPLEIDILYQLADLYNASGRLTLADIERIAPLAEGALPYNLAELQRQQSPGLGRPIWLQIAESAYRFTLGSVAGAVGATAVYPIDLVKTRMQNQRGSGSVVGELMYKNSFDCFKKVLRYEGFFGLYRGLIPQLIGVAPEKAIKLTVNDFVRDKFTRRDGSVPLPAEVLAGGCAGGSQVIFTNPLEIVKIRLQVAGEITTGPRVSALNVLRDLGIFGLYKGAKACFLRDIPFSAIYFPVYAHCKLLLADENGHVGGLNLLAAGAMAGVPAASLVTPADVIKTRLQVAARAGQTTYSGVIDCFRKILREEGPSAFWKGTAARVFRSSPQFGVTLVTYELLQRWFYIDFGGLKPAGSEPTPKSRIADLPPANPDHIGGYRLATATFAGIENKFGLYLPKFKSPSVAVVQPKAAVAATQ [SLC25A12]”, the “solubility in G1/S (log2)” value in the data set on HeLa Kyoto [1] is -0.00588. The thermal stability score in the data set with HeLa Kyoto [2] (setting [5]) is -0.889; in the data set on HeLa Kyoto [2] (cell cycle stage: mitosis) it was -1.22. Further, in the data set with HeLa Kyoto [3], the “solubility change mitosis (log2)” value is -0.128. Besides, the melting temperature was found to be 56 °C with HeLa Kyoto [4] (cell cycle stage: G1/S) and 57.1 °C in the data set with HeLa Kyoto [4] (cell cycle stage: mitosis).
For the sequence “MAVNVYSTSVTSDNLSRHDMLAWINESLQLNLTKIEQLCSGAAYCQFMDMLFPGSIALKKVKFQAKLEHEYIQNFKILQAGFKRMGVDKIIPVDKLVKGKFQDNFEFVQWFKKFFDANYDGKDYDPVAARQGQETAVAPSLVAPALNKPKKPLTSSSAAPQRPISTQRTAAAPKAGPGVVRKNPGVGNGDDEAAELMQQVNVLKLTVEDLEKERDFYFGKLRNIELICQENEGENDPVLQRIVDILYATDEGFVIPDEGGPQEEQEEY [MAPRE1]”, the “solubility in G1/S (log2)” value with HeLa Kyoto [1] was found to be 0.394. The values for the thermal stability score in the data set on HeLa Kyoto [2] (setting [5]) and in the data set on HeLa Kyoto [2] (cell cycle stage: mitosis) were -0.163 and -0.675, respectively. Moreover, the “solubility change mitosis (log2)” value in the data set with HeLa Kyoto [3] turned out to be 0.204. In addition, the melting temperature in the data set on HeLa Kyoto [4] (cell cycle stage: G1/S) stood at 50.8 °C; with HeLa Kyoto [4] (cell cycle stage: mitosis) it was 51.2 °C.
“MAVSAGSARTSPSSDKVQKDKAELISGPRQDSRIGKLLGFEWTDLSSWRRLVTLLNRPTDPASLAVFRFLFGFLMVLDIPQERGLSSLDRKYLDGLDVCRFPLLDALRPLPLDWMYLVYTIMFLGALGMMLGLCYRISCVLFLLPYWYVFLLDKTSWNNHSYLYGLLAFQLTFMDANHYWSVDGLLNAHRRNAHVPLWNYAVLRGQIFIVYFIAGVKKLDADWVEGYSMEYLSRHWLFSPFKLLLSEELTSLLVVHWGGLLLDLSAGFLLFFDVSRSIGLFFVSYFHCMNSQLFSIGMFSYVMLASSPLFCSPEWPRKLVSYCPRRLQQLLPLKAAPQPSVSCVYKRSRGKSGQKPGLRHQLGAAFTLLYLLEQLFLPYSHFLTQGYNNWTNGLYGYSWDMMVHSRSHQHVKITYRDGRTGELGYLNPGVFTQSRRWKDHADMLKQYATCLSRLLPKYNVTEPQIYFDIWVSINDRFQQRIFDPRVDIVQAAWSPFQRTSWVQPLLMDLSPWRAKLQEIKSSLDNHTEVVFIADFPGLHLENFVSEDLGNTSIQLLQGEVTVELVAEQKNQTLREGEKMQLPAGEYHKVYTTSPSPSCYMYVYVNTTELALEQDLAYLQELKEKVENGSETGPLPPELQPLLEGEVKGGPEPTPLVQTFLRRQQRLQEIERRRNTPFHERFFRFLLRKLYVFRRSFLMTCISLRNLILGRPSLEQLAQEVTYANLRPFEAVGELNPSNTDSSHSNPPESNPDPVHSEF [GGCX]”: the “solubility in G1/S (log2)” value in the data set with HeLa Kyoto [1] worked out at 0.0675. Also, the thermal stability score with HeLa Kyoto [2] (setting [5]) was -1.48; with HeLa Kyoto [2] (cell cycle stage: mitosis), -3.01. The “solubility change mitosis (log2)” value with HeLa Kyoto [3] is -0.054. Further, the melting temperature in the data set on HeLa Kyoto [4] (cell cycle stage: G1/S) was determined as 53 °C; with HeLa Kyoto [4] (cell cycle stage: mitosis), 53.1 °C.
